{"source": "patent US20130177528A1", "about": "“COMPOSITIONS AND METHODS FOR INHIBITING VIRAL INFECTION” (WESTERN UNIVERSITY OF HEALTH SCIENCES, priority 2011, published 2013)", "molecules": {"B1": {"name": "contortrostatin (protein)", "chain": "DAPANPCCDAATCKLTTGSQCADGLCCDQCKFMKEGTVCRRARGDDLDDYCNGISAGCPRNPFHA"}}, "key": {"[1]": {"system": "HSV-1 glycoproteins (gB, gD, gH-gL) mediated cell-to-cell fusion", "experiment": "Virus-free HSV-1 glycoprotein-mediated cell-to-cell fusion assay (Example 12)", "assay_type": "cell-based, human", "procedure": "FIG. 15A-B show the inhibition of HSV-1 glycoprotein-induced cell-to-cell fusion by CN and proposed model for CN-based anti-HSV-1 activity during cell entry. (A) In this experiment the naturally susceptible target human corneal fibroblasts (CF) cells expressing gD-receptors and luciferase gene were pre-incubated with 1 μM contortrostatin (CN) and mixed in 1:1 ratio with the effector Chinese hamster ovary (CHO-K1) cells expressing herpes simplex virus type-1 (HSV-1) glycoproteins (gB, gD, gH-gL) along with T7 plasmid (white bar indicated as treated [Tr]). In parallel, CN-untreated CF cells were similarly mixed with effector cells as positive control (+; black bar). The target CF cells co-cultured with effector cells devoid of HSV-1 glycoproteins were considered as negative control (−; grey bar). Membrane fusion as a means of viral spread was detected by monitoring luciferase activity. Relative luciferase units (RLUs) were determined using a Sirius luminometer (Berthoid Detection Systems, Titertek Instruments, Inc., Huntsville, Ala., USA). Error bars represent SD. (B) A cartoon illustrates the CN-mediated HSV-1 inhibition that might affect three major steps (a-c) that are involved during HSV-1 entry. (a) CN (presented by hatching) binding to host cell surface integrin (presented by α and β subunits) may affect HSV -1 glycoprotein H (gH) binding to integrins. […]"}, "[2]": {"system": "β-galactosidase-expressing recombinant Adenovirus", "experiment": "Adenovirus infection of HeLa cells (Example 7)", "assay_type": "cell-based", "conditions": "pre-incubated 90 min", "procedure": "HeLa cells were infected with a β-galactosidase-expressing recombinant Adenovirus were pre-incubated with CN at (1) the dilution indicated in FIG. 11, panel A (stock concentration 22 nM) or (2) the concentrations indicated in FIG. 11, panel B, or mock treated with 1 X phosphate saline buffer for 90 min at room temperature. After 12 hr, the cells were washed, permeabilized and incubated with ONPG substrate (3.0 mg/ml) for quantitation of β-galactosidase activity expressed from the input viral genome. Positive (Pos) infected with virus alone; Negative (Neg) uninfected control. The enzymatic activity was measured at an optical density of 410 nm (OD 410)."}, "HSV-1 (KOS) gL86": {"system": "HSV-1 (KOS) gL86", "experiment": "HSV-1 entry into CHO-K1 cells expressing gD receptors, virus pre-incubated with CN (Example 2)", "assay_type": "cell-based, herpes simplex virus type-1", "conditions": "virus 30 pfu/cell pre-incubated 90 min, read after 6 hr", "procedure": "Viral Entry Assay. Viral entry assays were based on quantitation of β-galactosidase expressed from the viral genome in which β-galactosidase expression is inducible by HSV infection. Cells were transiently transfected in 6-well tissue culture dishes, using Lipofectamine 2000 (In vitrogen Corp) with plasmids expressing HSV-1 entry receptors (necitn-1, HVEM and 3-OST-3 expression plasmids) at 1.5 μg per well in 1 ml. At 24 hr post-transfection, cells were re-plated in 96-well tissue culture dishes (2×10^4 cells per well) at least 16 hr prior to infection. Cells were washed and exposed to serially dilute pre-incubated virus with […] or with 1×PBS at two fold dilutions for 2 hr at room temperature. In a parallel experiment the cells were also pre-incubated with NBE for 2 hr at room temperature before infection with virus. Later the cells were washed with 1×PBS and allowed 6 hr at 37° C. before solubilization in 100 μl of PBS containing 0.5% NP-40 and the -galactosidase substrate, o-nitro-phenyl-D-galactopyranoside (ONPG; ImmunoPure, PIERCE, Rockford, Ill., 3 mg/ml). The enzymatic activity was monitored at 410 nm by spectrophotometry at several time points after the addition of ONPG in order to define the interval over which the generation of the product was linear with time. Microscopy was performed using 20×objective of the microscope (Nikon). The slide book version 3.0 was used for images. All experiments were repeated a minimum of three times.\nCN blocks herpes simplex virus type-1 (HSV-1) entry into CHO-K1 cells expressing gD receptors. […] After 6 hr at 37° C., the cells were washed, permeabilized with 100 μl of PBS containing 0.5% NP-40 and incubated with ONPG substrate (3.0 mg/ml) for quantitation of β-galactosidase activity expressed from the input viral genome. The enzymatic activity was measured at an optical density of 410 nm (OD 410)."}}, "data": [{"molecule": "B1", "values": [{"measurement": "polykaryocyte formation", "setting": "[1]; CN-treated target cells co-cultured with effector cells, data not shown", "result": "failed to form polykaryons"}, {"measurement": "cell-to-cell fusion (luciferase activity, RLU)", "setting": "[1]; target human CF treated with 1 μM, effector CHO-K1 cells expressing gB, gD, gH-gL, 1:1", "result": "impaired cell-to-cell fusion"}, {"measurement": "Adenovirus infection of HeLa cells (β-galactosidase activity, OD 410)", "setting": "[2]; 12 hr", "result": "blocks infection"}, {"measurement": "IC50", "setting": "[2]; β-galactosidase read after 12 hr", "result": 2.75, "unit": "nM"}, {"measurement": "HSV-1 viral entry (β-galactosidase activity, OD 410)", "setting": "HSV-1 (KOS) gL86; CHO-K1 cells expressing 3-OST-3", "result": "blocked viral entry"}, {"measurement": "HSV-1 viral entry (β-galactosidase activity, OD 410)", "setting": "HSV-1 (KOS) gL86; CHO-K1 cells expressing HVEM", "result": "blocked viral entry"}, {"measurement": "HSV-1 viral entry (β-galactosidase activity, OD 410)", "setting": "HSV-1 (KOS) gL86; CHO-K1 cells expressing nectin-1", "result": "blocked viral entry"}]}]}
